Measurements from patent US8440430, “Modified dicer polypeptide and methods of use thereof” (The Regents of the University of California).

T1: hWalker human Dicer (K70A) (Homo sapiens, UniProt Q9UPY3 SEQ:1-1922)
T1 chain: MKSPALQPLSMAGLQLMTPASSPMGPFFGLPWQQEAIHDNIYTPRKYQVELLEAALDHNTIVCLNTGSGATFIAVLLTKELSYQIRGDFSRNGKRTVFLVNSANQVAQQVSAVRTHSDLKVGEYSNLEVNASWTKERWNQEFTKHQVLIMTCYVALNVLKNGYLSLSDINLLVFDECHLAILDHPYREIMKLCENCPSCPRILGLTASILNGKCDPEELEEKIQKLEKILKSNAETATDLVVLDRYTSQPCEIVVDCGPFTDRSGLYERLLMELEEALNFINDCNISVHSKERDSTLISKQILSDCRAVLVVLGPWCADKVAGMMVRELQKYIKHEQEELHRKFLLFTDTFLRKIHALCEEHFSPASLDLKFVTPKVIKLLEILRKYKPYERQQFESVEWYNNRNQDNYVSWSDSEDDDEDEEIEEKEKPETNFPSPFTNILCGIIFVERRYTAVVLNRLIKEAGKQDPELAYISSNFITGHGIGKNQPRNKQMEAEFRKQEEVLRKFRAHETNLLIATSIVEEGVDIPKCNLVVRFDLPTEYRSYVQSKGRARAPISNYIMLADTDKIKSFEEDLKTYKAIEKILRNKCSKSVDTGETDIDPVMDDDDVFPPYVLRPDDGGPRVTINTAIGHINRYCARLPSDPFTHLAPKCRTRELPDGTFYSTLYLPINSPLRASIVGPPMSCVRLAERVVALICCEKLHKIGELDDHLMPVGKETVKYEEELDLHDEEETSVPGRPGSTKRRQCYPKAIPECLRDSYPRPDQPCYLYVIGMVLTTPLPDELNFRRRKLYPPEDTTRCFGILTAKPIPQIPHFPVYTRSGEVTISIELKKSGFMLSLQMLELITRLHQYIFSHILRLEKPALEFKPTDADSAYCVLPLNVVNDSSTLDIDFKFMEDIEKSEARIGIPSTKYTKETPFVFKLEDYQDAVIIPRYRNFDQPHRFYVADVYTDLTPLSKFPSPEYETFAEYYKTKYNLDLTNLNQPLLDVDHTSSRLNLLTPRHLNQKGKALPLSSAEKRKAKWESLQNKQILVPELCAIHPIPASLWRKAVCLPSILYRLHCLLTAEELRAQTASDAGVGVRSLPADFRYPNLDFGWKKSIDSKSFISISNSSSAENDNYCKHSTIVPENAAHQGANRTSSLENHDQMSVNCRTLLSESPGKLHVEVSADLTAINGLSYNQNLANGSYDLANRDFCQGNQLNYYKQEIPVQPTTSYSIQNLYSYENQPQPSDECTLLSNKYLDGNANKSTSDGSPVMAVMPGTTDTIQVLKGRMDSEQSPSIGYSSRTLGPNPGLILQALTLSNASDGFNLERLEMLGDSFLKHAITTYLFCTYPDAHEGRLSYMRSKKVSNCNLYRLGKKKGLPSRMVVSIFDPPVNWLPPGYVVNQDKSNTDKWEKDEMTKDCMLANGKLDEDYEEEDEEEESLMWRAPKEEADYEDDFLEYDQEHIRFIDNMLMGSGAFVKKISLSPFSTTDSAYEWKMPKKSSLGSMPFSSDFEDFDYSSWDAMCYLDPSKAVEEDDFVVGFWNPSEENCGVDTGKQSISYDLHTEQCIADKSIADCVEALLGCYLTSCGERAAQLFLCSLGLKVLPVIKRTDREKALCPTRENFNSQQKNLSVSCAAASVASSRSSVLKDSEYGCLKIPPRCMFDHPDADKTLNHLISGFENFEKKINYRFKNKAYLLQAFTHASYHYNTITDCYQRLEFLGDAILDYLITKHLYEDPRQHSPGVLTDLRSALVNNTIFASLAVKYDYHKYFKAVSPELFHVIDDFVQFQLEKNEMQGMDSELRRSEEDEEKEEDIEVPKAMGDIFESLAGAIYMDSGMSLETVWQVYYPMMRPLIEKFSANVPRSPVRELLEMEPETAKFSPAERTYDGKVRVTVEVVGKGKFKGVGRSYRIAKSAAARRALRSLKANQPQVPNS


Experiments:
[1] = molecular target: wild-type human Dicer (flhDcr) (Homo sapiens, UniProt Q9UPY3 SEQ:1-1922); experiment: filter; 5 mM EDTA, no free Mg2+, 25 mM NaCl, pH 7.5, room temperature; conditions: tags: N-terminal His6 removed by site-specific protease, baculovirus/Sf9
Protocol: A serial dilution of proteins were incubated in a buffer containing 20 mM Tris-Cl (pH 7.5), 25 mM NaCl, 5 mM EDTA, 1 mM dithiothreitol (DTT), 1% glycerol and ~0.5-1 nM (1500 c.p.m.) of ^32P-labeled duplex RNA substrate (one strand was labeled) at room temperature for 60 min […] After this incubation, 25 µl of each reaction were used for dot-blotting, which was conducted in a dot-blot apparatus equipped with 3 membranes of Tuffryn, Protran and Nytran (from top to bottom). After dried, the bound (on Protran) or free (on Nytran) RNAs were detected and quantified with Phosphoimager (GE Healthcare). Percentage of bound RNAs was calculated by 100 multiplied by the ratio of radioactivity (volumes) detected on the Protran membrane over the total input volumes (radioactivity). The bound RNAs (%) (Y-axle) were plotted against protein concentrations (X-axle). K_d was determined by global fitting to the equation of kobsd = (kmax ×[Dicer])(K_{1/2} + [Dicer])^-1, here $kobsd$ is the observed rate constant at a particular protein concentration, $kmax$ is the maximal rate constant with saturating protein, and K_{1/2} (or K_d) is the protein concentration that provides half the maximal rate. Curve fitting was conducted with KleidaGraph (Synery Software).
RNA. […] These values are similar to those measured previously (Provost et al, 2002; Vermeulen et al, 2005).

[2] = molecular target: T1, hWalker human Dicer (K70A); experiment: filter; within three-fold of full-length; 5 mM EDTA; exact Kd only in figure; conditions: tags: N-terminal His6 removed by site-specific protease, baculovirus/Sf9
Protocol: After dried, the bound (on Protran) or free (on Nytran) RNAs were detected and quantified with Phosphoimager (GE Healthcare). Percentage of bound RNAs was calculated by 100 multiplied by the ratio of radioactivity (volumes) detected on the Protran membrane over the total input volumes (radioactivity). The bound RNAs (%) (Y-axle) were plotted against protein concentrations (X-axle). K_d was determined by global fitting to the equation of kobsd = (kmax ×[Dicer])(K_{1/2} + [Dicer])^-1, here $kobsd$ is the observed rate constant at a particular protein concentration, $kmax$ is the maximal rate constant with saturating protein, and K_{1/2} (or K_d) is the protein concentration that provides half the maximal rate. Curve fitting was conducted with KleidaGraph (Synery Software).
RNA. […] These values are similar to those measured previously (Provost et al, 2002; Vermeulen et al, 2005). […] The protein lacking both the DExD/H-box domain and the dsRBD (2DD) bound ~3-4 fold more weakly to either substrate relative to full-length Dicer (FIG. 3A-C). It is possible that this severely truncated protein is generally destabilized, or that the DExD/H-box domain plays a small but measurable role in substrate binding.

[3] = label: 5'-32P on one strand, perfect duplex with 2-nt 3' overhangs on both ends

Binder	Kd [1, 3] [nM]	Kd relative to full-length Dicer (fold) [2, 3]	Kd ([1]; label: 5'-32P, hairpin) [nM]	Kd relative to full-length Dicer (fold) ([2]; label: 5'-32P, hairpin)
37ab duplex RNA (dsRNA) RNA 1: UGAGGUAGUAGGUUGUAUAGUUUGAAAGUUCACGAUU RNA 2: UCGUGAACUUUCAAACUAUACAACCUACUACCUCAUU	75	≤ 3 fold of full-length Kd (75 nM)	–	–
pre-hlet-7 hairpin RNA (ssRNA) RNA: UGAGGUAGUAGGUUGUAUAGUUUUAGGGUCACACCCACCACUGGGAGAUAACUAUACAAUCUACUGUCUUACC	–	–	30	≤ 3 fold of full-length Kd (30 nM)
